From patent US9260728B2, “Terpene synthases from Santalum” (UNIVERSITY OF BRITISH COLUMBIA, priority 2009, dated 2016)

Assays:
Type in all cases: biochemical
[1] = GC-FID determination of reaction products of terpene synthases from FPP with magnesium or manganese
Protocol: Enzyme assays for all recombinant proteins were done in triplicate using the GC vial method described by O'Maille et al. (Anal. Biochem. 335:[…] (2004). For enzyme assays where only product identification was needed, 10 μg of protein was used in a final volume of 500 μL of reaction buffer (25 mM HEPES, 10% glycerol, 5 mM DTT and 10 mM of either Mg^2+ or Mn^2+. Substrates (FPP and GPP) were added to a final reaction concentration of 100 μM. Vials were overlaid with 500 μL of hexane to trap volatile products and incubated at 30° C. for 2 h. Mixtures were vortexed for 1 min to extract all volatiles and the vials were centrifuged to separate the organic layer.
Product mixtures were analysed by GC-MS in scan mode for product identification. A standard containing the three santalenes and α-trans-bergamotene was prepared by flash chromatography of 2 mL of neat S. album oil over silica and eluted in hexane. A final yield of 25 mg was resuspended in EtOAc and purity was confirmed by GC-FID with conditions described below. All mass spectra were compared to the NIST 2005 library and the literature. Retention indices were determined for all compounds using an n-alkane standard and compared to the literature (R. P. Adams, “Identification of essential oil components by gas chromatography/mass spectrometry,” Allured Publishing Corporation, Carol Stream, Ill. (1995)).
(§1) GC-FID was performed on a Shimadzu GC2010 with a 30 m 0.25 mm ID, 0.25 μm film DB-WAX column with He as the carrier gas. Splitless injection (2 μL) was used for all analyses. Conditions were as follows: injector 200° C., detector 250° C., column flow rate 1 mL/min. Oven program: 40° C. for 3 min, then 8° C./min to 180° C., held 5 min, then 10° C./min to 220° C., held 10 min. Needle height was adjusted to only draw from the upper organic layer of all sample vials. GC-MS was performed on a Shimadzu GC2010 with the same DB-WAX column and using He as the carrier gas. Conditions were as follows: injector 200° C., MS interface 240° C., ion source 200° C. Oven program: 40° C. for 3 min, then 8° C./min to 180° C., held 5 min, then 10° C./min to 220° C., held 10 min. Solvent cut time was set to 5 min. For product identification, total ion monitoring was used, scanning from m/z 45 to m/z 300. For kinetic assays, single ion monitoring of the sesquiterpene base ions m/z 91, 93 and 94 were used. Likewise monoterpene base ions (m/z 69, 71 and 93) were monitored. An internal standard (isobutyl benzene, 30 μM) was added to the hexane used to overlay each reaction. Detector response factors were calculated based on the santalene standard prepared earlier and used to determine the product concentrations for kinetic analysis.

[2] = Steady-state enzyme kinetic assays
Protocol: For determination of steady-state enzyme kinetic constants, conditions were as described previously except the enzyme concentration was kept at 10 nM. Substrate concentrations ranged from 1 uM to 100 uM, and reactions were incubated at 30° C. for exactly 5 mins. Reactions were quenched by the addition of 500 μL 0.5 M EDTA, pH 8.0 and vortexed as above.
as §1

[3] = GC-FID determination of reaction products of terpene synthases from FPP with magnesium or manganese; remark: listed apart in the source

B1: SauSSy: santalene synthase from Santalum austrocaledonicum, gene SEQ ID NO:3, protein SEQ ID NO:4 (protein, listed as Santalum austrocaledonicum)
chain: MDSSTATAMTAPFIDPTDHVNLKTDTDASENRRMGNYKPSIWNYDFLQSLATHHNIVEERHLKLAEKLKGQVKFMFGAPMEPLAKLELVDVVQRLGLNHRFETEIKEALFSIYKDESNGWWFGHLHATSLRFRLLRQCGLFIPQDVFKTFQNKTGEFDMKLCDNVKGLLSLYEASYLGWKGENILDEAKAFATKYLKSAWENISEKWLAKRVKHALALPLHWRVPRIEARWFIEAYEQEANMNPTLLKLAKLDFNMVQSIHQKEIGELARWWVTTGLDKLAFARNNLLQSYMWSCAIASDPKFKLARETIVEIGSVLTVVDDAYDVYGSMDELDLYTSSVERWSCVEIDKLPNTLKLIFMSMFNKTNEVGLRVQHERGYNSIPTFIKAWVQQCKSYQKEARWFHGGHTPPLEEYSLNGLVSIGFPLLLITGYVAIAENEAALDKVHPLPDLLHYSSLLSRLINDIGTSPDEMARGDNLKSIHCYMNGTGASEEVAREHIKGVIEENWKILNQCCFDQSQFQEPFITFNLNSVRGSHFFYEFGDGFGVTDSWTKVDMKSVLIDPIPLGEE
modifications: SauSSy Protein
In the case of B1, the “E-β-farnesene among reaction products (GC-FID)” value ([1]; FPP Mg, mean) is reported as 1.4, the “Z-β-farnesene among reaction products (GC-FID)” value ([1]; FPP Mg, mean) is reported as 0.6 and the “epi-β-santalene among reaction products (GC-FID)” value ([1]; FPP Mg, mean) is reported as 4.8. The “α-E-bergamotene among reaction products (GC-FID)” value ([1]; FPP Mg, mean) was 14.5, the “α-santalene among reaction products (GC-FID)” value ([1]; FPP Mg, mean) was 51.3 and the “β-santalene among reaction products (GC-FID)” value ([1]; FPP Mg, mean) was 27.4. The “E-β-farnesene among reaction products (GC-FID)” value ([1]; FPP Mg, replicate 1) was 1.5, the “Z-β-farnesene among reaction products (GC-FID)” value ([1]; FPP Mg, replicate 1) was 0.6 and the “epi-β-santalene among reaction products (GC-FID)” value ([1]; FPP Mg, replicate 1) was 4.7. The “α-E-bergamotene among reaction products (GC-FID)” value ([1]; FPP Mg, replicate 1) was 13.8, the “α-santalene among reaction products (GC-FID)” value ([1]; FPP Mg, replicate 1) was 51.7 and the “β-santalene among reaction products (GC-FID)” value ([1]; FPP Mg, replicate 1) was 27.8. For the same molecule, the “E-β-farnesene among reaction products (GC-FID)” value ([1]; FPP Mg, replicate 2) was 1.3, the “Z-β-farnesene among reaction products (GC-FID)” value ([1]; FPP Mg, replicate 2) was 0.6 and the “epi-β-santalene among reaction products (GC-FID)” value ([1]; FPP Mg, replicate 2) was 4.6. For the same molecule, the “α-E-bergamotene among reaction products (GC-FID)” value ([1]; FPP Mg, replicate 2) was 14.6, the “α-santalene among reaction products (GC-FID)” value ([1]; FPP Mg, replicate 2) was 51.5 and the “β-santalene among reaction products (GC-FID)” value ([1]; FPP Mg, replicate 2) was 27.5. For the same molecule, the “E-β-farnesene among reaction products (GC-FID)” value ([1]; FPP Mg, replicate 3) was 1.5, the “Z-β-farnesene among reaction products (GC-FID)” value ([1]; FPP Mg, replicate 3) was 0.5 and the “epi-β-santalene among reaction products (GC-FID)” value ([1]; FPP Mg, replicate 3) was 5.1. The “α-E-bergamotene among reaction products (GC-FID)” value ([1]; FPP Mg, replicate 3) was 15.2, the “α-santalene among reaction products (GC-FID)” value ([1]; FPP Mg, replicate 3) was 50.7 and the “β-santalene among reaction products (GC-FID)” value ([1]; FPP Mg, replicate 3) was 27.0. For the same molecule, the “E-β-farnesene among reaction products (GC-FID)” value ([1]; FPP Mn, mean) was 8.5, the “Z-β-farnesene among reaction products (GC-FID)” value ([1]; FPP Mn, mean) was 0.9 and the “epi-β-santalene among reaction products (GC-FID)” value ([1]; FPP Mn, mean) was 1.2. For the same molecule, the “α-E-bergamotene among reaction products (GC-FID)” value ([1]; FPP Mn, mean) was 73.6, the “α-santalene among reaction products (GC-FID)” value ([1]; FPP Mn, mean) was 10.2 and the “β-santalene among reaction products (GC-FID)” value ([1]; FPP Mn, mean) was 5.3. The “E-β-farnesene among reaction products (GC-FID)” value ([1]; FPP Mn, replicate 1) was 8.3, the “Z-β-farnesene among reaction products (GC-FID)” value ([1]; FPP Mn, replicate 1) was 0.9 and the “epi-β-santalene among reaction products (GC-FID)” value ([1]; FPP Mn, replicate 1) was 1.4. For the same molecule, the “α-E-bergamotene among reaction products (GC-FID)” value ([1]; FPP Mn, replicate 1) was 72.5, the “α-santalene among reaction products (GC-FID)” value ([1]; FPP Mn, replicate 1) was 10.3 and the “β-santalene among reaction products (GC-FID)” value ([1]; FPP Mn, replicate 1) was 5.3. For the same molecule, the “E-β-farnesene among reaction products (GC-FID)” value ([1]; FPP Mn, replicate 2) was 8.5, the “Z-β-farnesene among reaction products (GC-FID)” value ([1]; FPP Mn, replicate 2) was 0.9 and the “epi-β-santalene among reaction products (GC-FID)” value ([1]; FPP Mn, replicate 2) was 0.8. For the same molecule, the “α-E-bergamotene among reaction products (GC-FID)” value ([1]; FPP Mn, replicate 2) was 73.8, the “α-santalene among reaction products (GC-FID)” value ([1]; FPP Mn, replicate 2) was 10.5 and the “β-santalene among reaction products (GC-FID)” value ([1]; FPP Mn, replicate 2) was 5.5. The “E-β-farnesene among reaction products (GC-FID)” value ([1]; FPP Mn, replicate 3) was 8.6, the “Z-β-farnesene among reaction products (GC-FID)” value ([1]; FPP Mn, replicate 3) was 0.9 and the “epi-β-santalene among reaction products (GC-FID)” value ([1]; FPP Mn, replicate 3) was 1.2. The “α-E-bergamotene among reaction products (GC-FID)” value ([1]; FPP Mn, replicate 3) was 74.4, the “α-santalene among reaction products (GC-FID)” value ([1]; FPP Mn, replicate 3) was 9.7 and the “β-santalene among reaction products (GC-FID)” value ([1]; FPP Mn, replicate 3) was 5.1. For the same molecule, the “Relative % composition in oil produced by enzyme: E-α-bergamotol” value ([1]; GC-FID) was 14.5%, the “Relative % composition in oil produced by enzyme: β-santalol” value ([1]; GC-FID) was 27.4% and the Kcat ([2]; FPP) was 0.0277 s⁻¹. For the same molecule, the Vmax ([2]; assays using FPP) was 0.54 µM/min, the “Relative % composition in oil produced by enzyme: epi-β-santalol” value [3] was 4.8% and the “Relative % composition in oil produced by enzyme: α-santalol” value [3] was 51.3%.
